# B1: rNAMPT: Recombinant NAMPT protein (CY-E1251) from MBL (protein)
# chain: MNPAAEAEFNILLATDSYKVTHYKQYPPNTSKVYSYFECREKKTENSKLRKVKYEETVFYGLQYILNKYLKGKVVTKEKIQEAKDVYKEHFQDDVFNEKGWNYILEKYDGHLPIEIKAVPEGFVIPRGNVLFTVENTDPECYWLTNWIETILVQSWYPITVATNSREQKKILAKYLLETSGNLDGLEYKLHDFGYRGVSSQETAGIGASAHLVNFKGTDTVAGLALIKKYYGTKDPVPGYSVPAAEHSTITAWGKDHEKDAFEHIVTQFSSVPVSVVSDSYDIYNACEKIWGEDLRHLIVSRSTQAPLIIRPDSGNPLDTVLKVLEILGKKFPVTENSKGYKLLPPYLRVIQGDGVDINTLQEIVEGMKQKMWSIENIAFGSGGGLLQKLTRDLLNCSFKCSYVVTNGLGINVFKDPVADPNKRSKKGRLSLHRTPAGNFVTLEEGKGDLEEYGQDLLHTVFKNGKVTKSYSFDEIRKNAQLNIELEAAHH
# Columns and labels:
# [1] = tested on: hPASMCs; assay: TUNEL apoptosis assay in hPASMCs; format: cell-based, human; conditions: H2O2 100 μM + rhNAMPT 20 μg/ml, 24 hrs
# Description: hPASMCs were cultured on a coverslip in a 6-well cell culture plate. H2O2 (100 μM, Sigma, Cat. #ab66110) was used as an apoptosis stimulus for hPASMCs.
# When cell confluence reached 95%, cells were starved for 3 hrs and stimulated by H2O2, FK866 (10 μM), H2O2+rhNAMPT (20 μg/ml) or H2O2+rhNAMPT (20 μg/ml) with FK866 (10 μM) for 24 hrs. Cell apoptosis was examined using an in situ BrdU-Red DNA fragmentation (TUNEL) kit. The cells on the coverslips were examined using a Nikon Eclipse E800 fluorescence microscope, and the images were processed by MetaMorph software (Molecular Devices, Inc.). Approximately ten images were taken from each condition, and over 500 cells were counted according to DAPI staining.
# [2] = tested on: human lung SMCs; assay: Store-operated Ca2+ entry and STIM2/Orai2 expression in human lung SMCs; format: cell-based; conditions: 48 hr
# Description: Recombinant NAMPT protein (CY-E1251) was obtained from MBL Lifescience. Solubilized protein lysates isolated from lung tissues and cells were used to detect NAMPT, STIM2, ORAI2 and actin as previously described. Cells were lysed in a modified radioimmunoprecipitation assay (mRIPA) lysis buffer with a protease and phosphatase inhibitor cocktail (Sigma Aldrich, St. Louis, Mo.), and protein quantification and Western blot analysis were performed according to standard procedures.
# Human Primary Pulmonary Artery Smooth Muscle Cells (hPASMCs) from control and PAH patients were obtained and isolated as previously described from Lonza (CC-2581 and CC-2530) were used for cell transfection and proliferation assays.
# [Ca2+]cyt was measured in PASMC loaded with fura-2 (4 mM) in a Nikon digital fluorescent imaging system. Cells were loaded with 4 μM fura-2 acetoxymethyl ester (fura-2/AM) for 60 min at 25° C. and [Ca2+]cyt was measured using a ratiometric method at 32° C. Cyclepiazonic acid (CPA, a specific Ca2+-ATPase inhibitor) was used to induce store-operated calcium entry (SOCE).
# [3] = tested on: human lung SMC; assay: BrdU proliferation of human lung SMC exposed to recombinant NAMPT; format: cell-based; conditions: 1, 5, 20 μg/ml
# Description: Cell proliferation was determined using either a 5-bromo-2′-deoxyuridine (BrdU) incorporation assay or cell counting. BrdU assays (QIA58, Calbiochem, San Diego, Calif.) were performed in a 96-well format according to manufacturer's instructions, using starting cell densities of 4000 cells/well. For cell counting, cells were trypsinized and resuspended after experimental procedures; densities were counted with a TC10™ automated cell counter (Bio-Rad). FBS or PDGF was used as positive controls.
# [4] = tested on: hPASMCs; assay: Transwell migration and wound healing assays; format: cell-based, human; conditions: rhNAMPT 20 μg/ml
# Description: For quantitative data from transwell migration assays (ANOVA P<0.05). 50,000 cells were added into Falcon™ Cell Culture Inserts (Fisher, Cat. #08-771-12) with 8-μm pores in 1 ml of basal medium and 250 μl on the top of the transwell. Cells were then stimulated by vehicle, rhNAMPT (20 μg/ml) with or without FK866 (10 μM) for 48 hrs. Unmigrated cells were then scraped from the top of the filter and the migrated bottom layer of cells were stained by 1% aqueous Crystal Violet solution (Electron Microscopy Sciences, Cat. #RT 26088-10). The transwell bottom was gently separated by a blade and put on a glass slide for imaging.
# The migrated cells were counted and quantified. Images were taken by an Olympus BX51Fluorescence Microscope and processed by DPController Software (Oylmpus IMS).
# In wound healing assays, approximately 0.5 million human Primary Pulmonary Artery Smooth Muscle Cells (hPASMCs) were seeded to 6-well cell culture plates, a straight line was scratched using a 200-μl pipette tip after cells reached 100% confluence. Three dots were labelled beside each line. […]
# Image J software was used to measure the wound line width for all the three spots labeled in each line. Wound closure %={[width (start point)-width (end point)]/width (start point)}×100% was calculated (ANOVA P<0.05).
molecule,measurement,setting,value
B1,hPASMC apoptosis (TUNEL positive cells),[1],inhibits
same,cyclopiazonic acid (CPA)-mediated store-operated Ca2+ entry (SOCE),[2]; 20 μg/ml,augments
same,expression of Orai2,[2],increases
same,expression of STIM2,[2],increases
same,human lung SMC proliferation,[3],dose-dependently stimulating
same,human PASMC migration,[4],promotes
